# Test results published in publication PMC3488213 (Nucleic Acids Research, 2012).
# B1: Y29W mutant of C.Esp1396I (natural protein)
# chain: MESFLLSKVSFVIKKIRLEKGMTQEDLAWKSNLDRTYISGIERNSRNLTIKSLELIMKGLEVSDVVFFEMLIKEILKHD
# Target: the molecule itself
# Assay: AUC
protein,measurement,value
B1,stoichiometry N,2
